From IntAct's records for PubMed 11113154

Columns and labels:
bem1_yeast BEM1 [1] = molecular target: bem1_yeast BEM1 (UniProt P29366)
bem1_yeast BEM1 [2] = molecular target: bem1_yeast BEM1 (UniProt P29366); remark: listed apart in the source

Sequence of bem1_yeast BEM1 (P29366 whole entry): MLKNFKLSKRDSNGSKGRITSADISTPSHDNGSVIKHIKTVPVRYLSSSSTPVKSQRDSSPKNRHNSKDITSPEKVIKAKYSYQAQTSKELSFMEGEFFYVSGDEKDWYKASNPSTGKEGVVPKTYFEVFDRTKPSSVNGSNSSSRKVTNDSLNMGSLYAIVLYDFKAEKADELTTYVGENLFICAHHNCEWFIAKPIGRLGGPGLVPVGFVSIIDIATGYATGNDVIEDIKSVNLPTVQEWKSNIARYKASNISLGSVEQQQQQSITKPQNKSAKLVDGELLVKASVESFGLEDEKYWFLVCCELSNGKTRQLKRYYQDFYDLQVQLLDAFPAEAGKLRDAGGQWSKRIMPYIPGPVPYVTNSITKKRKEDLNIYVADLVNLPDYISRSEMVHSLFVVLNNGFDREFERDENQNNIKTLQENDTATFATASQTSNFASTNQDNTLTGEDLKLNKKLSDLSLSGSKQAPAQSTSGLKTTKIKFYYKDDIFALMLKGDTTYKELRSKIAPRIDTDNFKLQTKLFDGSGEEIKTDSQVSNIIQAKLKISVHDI
Sequence of Cell division control protein 42 (Saccharomyces cerevisiae), P19073 D57Y (P19073 whole entry D57Y): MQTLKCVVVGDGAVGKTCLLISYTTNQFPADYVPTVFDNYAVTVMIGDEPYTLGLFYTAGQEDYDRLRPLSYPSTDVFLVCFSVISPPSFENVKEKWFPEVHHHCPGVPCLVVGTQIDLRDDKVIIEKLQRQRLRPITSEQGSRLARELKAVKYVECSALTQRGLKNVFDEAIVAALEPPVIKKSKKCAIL
Sequence of Cell division control protein 42 (Saccharomyces cerevisiae), P19073 Q61L (P19073 whole entry Q61L): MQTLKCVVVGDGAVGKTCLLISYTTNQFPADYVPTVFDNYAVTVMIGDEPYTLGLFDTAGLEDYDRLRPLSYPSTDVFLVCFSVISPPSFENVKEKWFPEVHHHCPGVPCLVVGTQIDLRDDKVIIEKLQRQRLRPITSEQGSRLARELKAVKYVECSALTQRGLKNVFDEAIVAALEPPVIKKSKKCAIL

| Substance | effect of a mutation on the interaction (bem1_yeast BEM1 [1]) | effect of a mutation on the interaction (bem1_yeast BEM1 [2]) |
| --- | --- | --- |
| Cell division control protein 42 (Saccharomyces cerevisiae), P19073 D57Y | disrupting interaction strength | – |
| Cell division control protein 42 (Saccharomyces cerevisiae), P19073 Q61L | – | with no effect |
